The experiment concerns the target RNA polymerase II (RNAPII) (human (endogenous in HepG2)) (UniProt P24928). Briefly: co-sedimentation; HepG2 cell lysate on a 10-40% glycerol gradient in NP-40 lysis buffer (50 mM HEPES pH 7.5, 100 mM NaCl), 50,000 rpm for 11 h at 4°C; fractions detected by Western blotting.

Drawing on PMC11027413, this text covers percent of RBM22 linked with RNAPII for one substance.

Take “RBM22 (endogenous) (from UniProt Q9NW64 1-420) (natural protein)”: the percent of RBM22 linked with RNAPII turned out to be 40%.
